# Tested on: MS2 coat protein
# Assay: apparent KD of MS2 coat protein; designed switch direction (-1 OFF switch, 1 ON switch): -1; higher = weaker reporter binding
# How it was run: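 For each design, the apparent KD is the median over clusters of curves fitted to normalised cluster fluorescence. Clusters held RNA switches with common flanks, transcribed on Illumina chips by stalled E. coli RNA polymerase. These were titrated with SNAP-549-labelled MS2 coat protein, doubling from 0.7 or 1.5 nM to 3 µM, without input, with 200 uM small-molecule ligand, or with an oligonucleotide input.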
# [1] = input ligand: microRNA oligo, concentration not stated
# [2] = Eterna round: R95, input ligand: FMN 200 uM
# [3] = Eterna round: R95, input ligand: microRNA oligo, concentration not stated
# [4] = Eterna round: R95, input ligand: none
Sequence,apparent KD of MS2 coat protein (input ligand: FMN 200 uM),apparent KD of MS2 coat protein [1],apparent KD of MS2 coat protein (input ligand: none),apparent KD of MS2 coat protein [2],apparent KD of MS2 coat protein [3],apparent KD of MS2 coat protein [4]
"UUGUUAUAUGUAGGAUAUGCGUGUUGUUAUUAGGCAGAAGGACAUGAGGAUCACCCAUGUAUGUUGUUGUUAUAUAUUAUAUAU [Title] (Eterna round: R96, puzzle: Exclusion NG 1)",56.3 nM,28.3 nM,58.8 nM,–,–,–
UCAUGGAAGCAGGAUAUGCUUGUUUAAUUGUUUGCAGAAGGGCUAACAUGAGGAUCACCCAUGUGAGAGGUCUA [JR_E6_Sub064] (puzzle: Exclusion 6),–,–,–,20.5 nM,33.8 nM,36.7 nM
CUCGGGAGUCAGGAUAUCGGCACUUAUCAAUCACGAGAAGGGACGACAUGAGGAUCACCCAUGUGGGAAAAGAA [Ersoar] (puzzle: Exclusion 6),–,–,–,252 nM,89.4 nM,84.7 nM
"GAUGGACAUGAGGAUCACCCAUGUAAGGAUAUUGUUUGUGGCUAGUUUUGGUUACGGGCGAGAAGGUACUCGUC [-19.7, -16.7 kcal, A 23%] (Eterna round: R97, puzzle: Exclusion 1)",39.7 nM,–,47.7 nM,–,–,–
GCUUGUAGAGGAUAUACGAGGGCCCGAGCGGAUAACACCGCACAUGAGGAUCACCCAUGUAGAAGGCUACCACC [Riquinza] (puzzle: Exclusion 2),–,–,–,–,20.8 nM,–
"GGAUAUAGGCGAGGAUAUACGCACCACUAACUAGUAGAAGGCGCACAUGAGGAUCACCCAUGUGAUUUCUCAAUAUGAUACACG [Prohibition 71 - Jieux - Exclusion NG 1] (Eterna round: R96, puzzle: Exclusion NG 1)",218 nM,107 nM,183 nM,–,–,–
"AGUUAUGUAGGAUAUGCACGUGACAACUUGAGGAUCACCCAAGUGAUUGCAGGCUGGGCGGCAGAAGGGCAGUUGU [Diedbi] (Eterna round: R97, puzzle: Exclusion 5)",153 nM,–,104 nM,–,–,–
"GCAGCAUUAGGAUAUUGCUAAUGUAACAUGAGGAUCACCCAUGUGUGUCGUUAUUACUUAUAAGAAGGAAUGUGCC [Eternabot (L2) Solution 88] (Eterna round: R97, puzzle: Exclusion 5)",24.9 nM,–,36.4 nM,–,–,–
"UAUCUACAUGUAGGAUAUGCGUGGCGAAGCUAUGCAGAAGGACAUGAGGAUCACCCAUGUUUUAGCGUCUGCGUACAGAUGCGU [JL ENG1 1.48] (Eterna round: R96, puzzle: Exclusion NG 1)",149 nM,16.4 nM,23.2 nM,–,–,–
GUGAAGUGAGGAUAUACGAGAGAGGCUGAACCUGGAGAGAAGUAGAAGGCACAUGAGGAUCACCCAUGUUAGGA [JR_Exclu4_Sub021] (puzzle: Exclusion 4),–,–,–,–,38 nM,–
"GCGCUGUGAGGAUAUUAGUAGUAGAUAAAAUAAACUAUUACUGAGAAGGCACAUGAGGAUCACCCAUGUUGCGC [Eli x4 4.04] (Eterna round: R97, puzzle: Exclusion 4)",24.7 nM,–,19.6 nM,–,–,–
GAGCUAUGAGGAUAUGCAUAGAUACGGAUUCGUGUAGUACUACAUGAGGAUCACCCAUGUAGAAGGCGUGGCAG [Mat - Exclusion 2 - Mod of JL - D76] (puzzle: Exclusion 2),–,–,–,–,13.9 nM,–
"AGCUGUGGCCAAGGAUAUCUAACCUUAAAUACCGACGUAUAGUCGGACAUGAGGAUCACCCAUGUGGAGAAGGUGGUCUCAGCA [Eli eng2 - 043] (Eterna round: R96, puzzle: Exclusion NG 2)",–,18.3 nM,–,–,–,–
AAGAAACGAGGAUAUACAAUUAAGAGAGAGAAGGAAAUGAGACAUGAGGAUCACCCAUGUAGAAGGCGUAAGAA [JR_Exclu2_Sub082] (puzzle: Exclusion 2),–,–,–,27.6 nM,31.1 nM,26.5 nM
"CCAAGAUAGGAAGGAUAUUGUACAUGAGGAUCACCCAUGUAAUAAAUGAGGAUCACGGAUGUAGACAAGAAGGUCCGGAUAAGC [Ostracism 5 - Jieux - Exclusion NG 2] (Eterna round: R96, puzzle: Exclusion NG 2)",84.1 nM,25.1 nM,45.1 nM,–,–,–
"AGGACAUGAGGAUCACCCAUGUAGUGAGGUGUAUCCGAAGACGAGGAUAUACAGAGGAAAUAUCUGUAGAAGGUGUUAUAAAUU [Atleusan] (Eterna round: R96, puzzle: Exclusion NG 3)",726 nM,229 nM,766 nM,–,–,–
"AGGUGAUAUCUGUCGAUGGACAUGAGGAUCACCCAUGUGAGCUUUUUGCUCGUCUUAUAAACCGGUGACAGACCUUC [Sensor v3, turn-off variant 1 (MOD of Zalaso)] (puzzle: Sensor v3, turn-off variant 1)",–,–,–,49.8 nM,20.6 nM,69.4 nM

Sequence,apparent KD of MS2 coat protein (input ligand: FMN 200 uM),apparent KD of MS2 coat protein [1],apparent KD of MS2 coat protein (input ligand: none),apparent KD of MS2 coat protein [2],apparent KD of MS2 coat protein [3],apparent KD of MS2 coat protein [4]
"ACAUGUUAUCCAUGAUAUCACAUGAGGAUCACCCAUGUUAUGGCGAUUUUGAGGUGUAAGUUUUUUGCUCGUCUUAU [JR_STOV1_Sub058] (Eterna round: R97, puzzle: Sensor, turn-off variant 1)",51.5 nM,–,61.1 nM,–,–,–
"GCAGCUUAGUUAACAGACUGUUACAUGAGGAUCACCCAUGUGCAGGAUAUGGUCUGGAUUACAGGCCAGAAGGGUACAGGCUGC [Eli exng3 - 017] (Eterna round: R96, puzzle: Exclusion NG 3)",10.8 nM,6.6 nM,13.4 nM,–,–,–
"CAGUCGAUAAGAUCAAUUAAUUAACAUGAGGAUCACCCAUGUGAGGAUAUCAGCUCGAUUAGAGCUGAGAAGGCACAACGACUG [ExNG3/17-A1] (Eterna round: R96, puzzle: Exclusion NG 3)",232 nM,31.3 nM,46.8 nM,–,–,–
"CGUCUGUCAGGAUAUACUUACGUAGACAUGAGGAUCACCCAUGUGACGUGGGACUAGUGAGUAGAAGGGACGAACA [EX5 #74] (Eterna round: R97, puzzle: Exclusion 5)",68.4 nM,–,46.7 nM,–,–,–
"AGAUGUAGAUACCGAUCCUACAUGAGGAUCACCCAUGUAGCUAGACGUGCGGGCGGCGCUCGUCAGACUACCAGUAG [salish99_TOv1_r3_094] (puzzle: Sensor v3, turn-off variant 1)",–,–,–,271 nM,214 nM,371 nM
"CAGUACUGAGGAUAUACAUGAGGAUCACCCAUGUGUUUUCUAUUAGGAAACUAGUUAUGUAGAAGGCAGUACUG [Omei Ex3 Mod of Eli 4.27 v11] (Eterna round: R97, puzzle: Exclusion 3)",304 nM,–,40 nM,–,–,–
GAUUGACAUGAGGAUCACCCAUGUGAGGAUAUCGGCUGGACCGUGUUGGCGUGCCUCUCGAGAAGGCGCAUAGG [Exclusion 1 V54] (puzzle: Exclusion 1),–,–,–,64.8 nM,39.9 nM,51.3 nM
"ACAAGCUUGUAAUGACUUAACAUGAGGAUCACCCAUGUAAAUGGAAGAACCAACUUGAUAUGAUUUACUCGUCUUAU [JR_STOV1_Sub010] (Eterna round: R97, puzzle: Sensor, turn-off variant 1)",1140 nM,–,1030 nM,–,–,–
GUGAGACAUGAGGAUCACCCAUGUGAGGAUAUCCGAAGGACCAAAUUAAGAAUAGAAGGGAGAAGGCACAUAAA [Exclusion 1 V6] (puzzle: Exclusion 1),–,–,–,128 nM,68.4 nM,157 nM
"AACCGGCGGACCGAAGCUUUUUGCUUGUUUUAUACUACAACAUGAGGAUCACCCAUGUGGUGGUGGUCCGUUGUAGA [Bitein] (puzzle: Sensor v3, turn-off variant 2)",–,–,–,47.9 nM,16.1 nM,52.9 nM
AAGGAUAGAGGAUAUACAUAGAUACAGAUUCAUGUAAUCCUACAUGAGGAUCACCCAUGUAGAAGGCUAUCCUA [Fiskers Ex 2 - 15] (puzzle: Exclusion 2),–,–,–,–,14.5 nM,–
"CGCACCACAUGAGGAUCAAACAUGAGGAUCACCCAUGUAUAACAAGCUUUUUGCUCGUCUUAUAAAUAUGUGGUGCG [Electric Eye 3 - Jieux - Sensor, turn-off variant 1] (Eterna round: R97, puzzle: Sensor, turn-off variant 1)",13.9 nM,–,14.2 nM,–,–,–
GAGGAGCAAGGAUAUACGAGGAUAGGGAAGUGAGGAGAGUGACAUGAGGAUCACCCAUGUAGAAGGUGCAAGGG [JR_Exclu2_Sub094] (puzzle: Exclusion 2),–,–,–,111 nM,89.4 nM,190 nM
"GAUUAACAAGCGAGAUCCCACAUGAGGAUCACCCAUGUGCUCGUCUUAUAAGGUACUGUGACGAAAGUCACGGUACC [Mat - Sensor, turn-off var - Eli Mod - D5] (Eterna round: R97, puzzle: Sensor, turn-off variant 1)",13.5 nM,–,15.2 nM,–,–,–
"CACCGUUACAUAGGAUAUGUUACAUGAGGAUCACCCAUGUAAUAAAUGAGAAUUUCGAAUGUAAUACAGAAGGAUGGAAUCGGC [Ostracism 71 - Jieux - Exclusion NG 2] (Eterna round: R96, puzzle: Exclusion NG 2)",28.7 nM,16.6 nM,17.7 nM,–,–,–
GAGAAGGUAGGAUAUACGAAUAAAUAGGGUAGGAAGAAGACACAUGAGGAUCACCCAUGUAGAAGGACCAAGAU [Mat - Exclusion 2 - Mod of my Tesla design - D35] (puzzle: Exclusion 2),–,–,–,–,18.1 nM,–

# From the supplement of paper PMC9170038
